Results on two substances are retold here after paper PMC11850223.

The target in experiment [1] is Hera_1–510_K51Q (ATPase-deficient variant) (Thermus thermophilus). Put plainly: SEC.
Experiment [2] addresses Hera_1–419_K51Q (ATPase-deficient variant) (Thermus thermophilus). The experiment can be described thus: SEC. In general terms: Size exclusion chromatography separates by hydrodynamic size, large species first.

In the case of “Hera_1–510_K51Q (ATPase-deficient variant) (enzyme)”, in experiment [1], the stoichiometry N (as a rule, a count of units in the complex or per binding partner) amounted to 2.

Turning to “Hera_1–419_K51Q (ATPase-deficient variant) (domain or fragment)”, the stoichiometry N in experiment [2] amounted to 2.
